{
  "source": "paper PMC5900763",
  "about": "“Granule-stored MUC5B mucins are packed by the non-covalent formation of N-terminal head-to-head tetramers” (The Journal of Biological Chemistry, 2018)",
  "key": {"[1]": {"target": "the molecule itself", "test": "SEC; Superose 6 3.2/300, 50 mM MES pH 6.2, 150 mM NaCl, no Ca2+"}, "[2]": {"target": "the molecule itself", "test": "SEC; Superose 6 3.2/300, 50 mM MES pH 6.2, 150 mM NaCl, 4 mM CaCl2, 0 h incubation, room temperature; covalent dimers to tetramer"}},
  "data": [
    {"protein": "MUC5B N-terminal part (MUC5B-N), recombinant covalent dimer (domain or fragment, human, UniProt Q9HC84 26-1304, looked up, MUC5B mucin, human, N-terminal part with the von Willebrand D1, D2, D' and D3 domains, residues 26-1304 of GenBank NM_002458; Disulfide-bonded (covalent) dimer through D3; Two such dimers form the non-covalent tetramer (Dx2) at pH 6.2 with Ca2+; also called MUC5B N-terminal covalent dimer; MUC5B N terminus; not shown: His6, N-terminal, kept) QGPVEPSWENAGHTMDGGAPTSSPTRRVSFVPPVTVFPSLSPLNPAHNGRVCSTWGDFHYKTFDGDVFRFPGLCNYVFSEHCRAAYEDFNVQLRRGLVGSRPVVTRVVIKAQGLVLEASNGSVLINGQREELPYSRTGLLVEQSGDYIKVSIRLVLTFLWNGEDSALLELDPKYANQTCGLCGDFNGLPAFNEFYAHNARLTPLQFGNLQKLDGPTEQCPDPLPLPAGNCTDEEGICHRTLLGPAFAECHALVDSTAYLAACAQDLCRCPTCPCATFVEYSRQCAHAGGQPRNWRCPELCPRTCPLNMQHQECGSPCTDTCSNPQRAQLCEDHCVDGCFCPPGTVLDDITHSGCLPLGQCPCTHGGRTYSPGTSFNTTCSSCTCSGGLWQCQDLPCPGTCSVQGGAHISTYDEKLYDLHGDCSYVLSKKCADSSFTVLAELRKCGLTDNENCLKAVTLSLDGGDTAIRVQADGGVFLNSIYTQLPLSAANITLFTPSSFFIVVQTGLGLQLLVQLVPLMQVFVRLDPAHQGQMCGLCGNFNQNQADDFTALSGVVEATGAAFANTWKAQAACANARNSFEDPCSLSVENENYARHWCSRLTDPNSAFSRCHSIINPKPFHSNCMFDTCNCERSEDCLCAALSSYVHACAAKGVQLSDWRDGVCTKYMQNCPKSQRYAYVVDACQPTCRGLSEADVTCSVSFVPVDGCTCPAGTFLNDAGACVPAQECPCYAHGTVLAPGEVVHDEGAVCSCTGGKLSCLGASLQKSTGCAAPMVYLDCSNSSAGTPGAECLRSCHTLDVGCFSTHCVSGCVCPPGLVSDGSGGCIAEEDCPCVHNEATYKPGETIRVDCNTCTCRNRRWECSHRLCLGTCVAYGDGHFITFDGDRYSFEGSCEYILAQDYCGDNTTHGTFRIVTENIPCGTTGTTCSKAIKLFVESYELILQEGTFKAVARGPGGDPPYKIRYMGIFLVIETHGMAVSWDRKTSVFIRLHQDYKGRVCGLCGNFDDNAINDFATRSRSVVGDALEFGNSWKLSPSCPDALAPKDPCTANPFRKSWAQKQCSILHGPTFAACRSQVDSTKYYEACVNDACACDSGGDCECFCTAVAAYAQACHDAGLCVSWRTPDTCPLFCDFYNPHGGCEWHYQPCGAPCLKTCRNPSGHCLVDLPGLEGCYPKCPPSQPFFNEDQMKCVAQCGCYDKDGNYYDVGARVPTAENCQSCNCTPSGIQCAHSLEACTCTYEDRTYSYQDVIYNTTDGLGACLIAICGSNGTIIRKAVACPG", "values": [
      {"measurement": "stoichiometry N", "setting": "[1]", "value": 2},
      {"measurement": "stoichiometry N", "setting": "[2]", "value": 4}
    ]}
  ]
}
